Results: US20030199671A1 (published 2003)
Positions of bridges follow the written chain, without caps; N, C: chain ends.

Experiments:
Experiment in all cases: batch binding, immobilised ligand
[1] = biological target: T1, human IgG1 (human, UniProt P01857-1 1-330 = IgG part)
T1 construct: Calbiochem; human plasma IgG1 in anisotropy studies, myeloma-derived (cat. 400120) in batch/column studies; also called hIgG1
Method: (§1) IgG targets were diluted into 10 mM phosphate buffer containing 150 mM NaCl and 0.01% Tween 20, pH 7.2 (PBST) or 50 mM Tris buffer containing, 150 mM NaCl and 0.01% Tween-20, pH 7.5 (TBST). Batch (static) binding and elution studies were conducted in a 96-well assay filterplate (Millipore MultiScreen-HV, with 0.45 μm Durapore membrane, product no. MAHVN4510). The target was allowed to incubate with the resin for 1-1.5 hours with shaking at room temperature. Unbound target was collected by centrifugation of samples from the assay plate directly into a low-UV absorbing 96-well collection plate (Costar, product no. 3635 or Greiner, product no. 655801). The unbound target was then quantitated by reading the absorbance at 280 nm (normalized to 1 cm pathlength, 1.4 mg/ml A280 extinction coefficient) of the collection plate on a microplate spectrophotometer (Molecular Devices Corp., SPECTRAmax PLUS) against a buffer blank.
(§2) The percentage bound target was determined by subtracting the mass determined as unbound from the corresponding condition's control values (control non-filtered added directly to the collection plate and/or the negative control). The assay plate was washed (3×) with 200 μl of binding buffer by vacuum filtration followed by addition of 100 μl of various elution conditions (e.g.: 0.1 M sodium bicarbonate buffer, pH 8.5 and/or 0.1 M sodium citrate buffer, pH 4.0). After a 30-60 minute incubation with shaking at room temperature, the eluted target was collected by centrifugation of the assay plate into another collection plate and quantitated in a similar manner. Percent elution of total load was then determined to characterize elution recovery efficiency under various conditions.

[2] = biological target: T2, human IgG2 (human, UniProt P01859-1 1-326 = IgG part)
T2 construct: Calbiochem; plasma IgG2 in anisotropy studies, myeloma-derived (cat. 400122) in batch/column studies; also called hIgG2
T2 sequence (P01859 other isoform, or with tags, fused parts or gaps): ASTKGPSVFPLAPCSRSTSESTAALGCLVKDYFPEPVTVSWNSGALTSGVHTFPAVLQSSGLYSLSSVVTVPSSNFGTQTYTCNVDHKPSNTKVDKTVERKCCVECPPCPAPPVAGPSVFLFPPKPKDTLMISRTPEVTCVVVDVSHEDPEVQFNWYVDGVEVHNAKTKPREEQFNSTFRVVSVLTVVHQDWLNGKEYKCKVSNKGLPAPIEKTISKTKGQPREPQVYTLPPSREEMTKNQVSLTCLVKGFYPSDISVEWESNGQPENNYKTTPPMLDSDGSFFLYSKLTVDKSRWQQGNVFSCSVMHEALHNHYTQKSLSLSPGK
Method: as §1, §2

[3] = biological target: T3, human IgG3 (human, UniProt P01860-1 1-377)
T3 construct: Calbiochem; plasma IgG3 in anisotropy studies, myeloma-derived (cat. 400124) in batch/column studies; also called hIgG3
T3 sequence (P01860 other isoform, or with tags, fused parts or gaps): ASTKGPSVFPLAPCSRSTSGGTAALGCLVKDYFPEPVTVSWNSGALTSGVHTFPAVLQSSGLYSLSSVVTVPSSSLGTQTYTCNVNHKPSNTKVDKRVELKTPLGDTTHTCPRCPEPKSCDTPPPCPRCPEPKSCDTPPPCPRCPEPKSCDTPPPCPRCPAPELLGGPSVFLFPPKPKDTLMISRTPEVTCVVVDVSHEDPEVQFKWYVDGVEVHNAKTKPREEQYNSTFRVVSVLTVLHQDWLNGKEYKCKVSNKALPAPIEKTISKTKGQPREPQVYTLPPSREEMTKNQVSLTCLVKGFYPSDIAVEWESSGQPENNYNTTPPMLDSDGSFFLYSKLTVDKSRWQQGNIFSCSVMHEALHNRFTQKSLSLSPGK
Method: as §1, §2

[4] = biological target: T4, human IgG4 (human, UniProt P01861-1 1-327 = IgG part)
T4 construct: Calbiochem; plasma IgG4 in anisotropy studies, myeloma-derived (cat. 400126) in batch/column studies; also called hIgG4
T4 sequence (P01861 other isoform, or with tags, fused parts or gaps): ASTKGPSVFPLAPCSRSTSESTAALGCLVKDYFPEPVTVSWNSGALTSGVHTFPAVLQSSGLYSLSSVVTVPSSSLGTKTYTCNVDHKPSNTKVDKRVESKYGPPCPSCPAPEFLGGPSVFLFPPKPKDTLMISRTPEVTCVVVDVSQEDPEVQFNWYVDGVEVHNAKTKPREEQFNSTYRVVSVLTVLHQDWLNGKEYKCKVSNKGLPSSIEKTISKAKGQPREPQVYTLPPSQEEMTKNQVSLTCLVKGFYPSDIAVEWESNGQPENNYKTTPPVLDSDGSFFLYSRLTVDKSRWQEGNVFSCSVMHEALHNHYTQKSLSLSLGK
Method: as §1, §2

T1 sequence (P01857 other isoform, or with tags, fused parts or gaps): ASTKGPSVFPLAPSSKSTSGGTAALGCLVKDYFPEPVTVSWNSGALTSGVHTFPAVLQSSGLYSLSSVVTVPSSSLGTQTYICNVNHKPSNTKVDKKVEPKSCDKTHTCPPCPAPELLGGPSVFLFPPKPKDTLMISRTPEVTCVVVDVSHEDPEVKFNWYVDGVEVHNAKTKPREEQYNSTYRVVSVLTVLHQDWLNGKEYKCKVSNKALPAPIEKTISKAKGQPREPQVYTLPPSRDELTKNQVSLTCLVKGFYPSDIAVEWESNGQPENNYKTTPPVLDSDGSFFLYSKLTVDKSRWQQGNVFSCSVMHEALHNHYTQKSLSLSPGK

Bound (% of Total Load) [1]: 88%
bdg % (of Total Load) [1]: 91%
Bound (% of Total Load) [2]: 78%
bdg % (of Total Load) [2]: 92%
Bound (% of Total Load) [3]: 0%
bdg % (of Total Load) [3]: 3%
Bound (% of Total Load) [4]: 61%
bdg % (of Total Load) [4]: 82%
Binder: Ac-GDDHMCVYTTWGELIWCDNHEPGPEGGGK-NH2 (disulfide 6-17 (inferred), Synthetic disulfide-cyclised peptide) [DX249]
